{"source": "paper PMC9683001", "tested_on": "AMV coat protein (CP) (Alfalfa mosaic virus)", "experiment": "EMSA", "conditions": "10 mM Na-phosphate pH 7.0, 1 mM EDTA, 5 U human placental RNase inhibitor, 10 uL, 30 min at room temperature; RNA preheated 65 C 5 min; 1.2% agarose gel in TAE", "data": [{"substance": "5'UTR-WT (AMV RNA3 5' UTR, plus strand)", "values": [{"measurement": "Kd", "result": 26.1, "unit": "µM"}]}, {"substance": "5'UTRΔ140", "values": [{"measurement": "Kd", "result": 41.1, "unit": "µM"}]}]}
